Assay results published in US20260265405A1 (NONA BIOSCIENCES SUZHOU, published 2026).

Experiments:
[1] = molecular target: T1, membrane-bound human MSLN (on CHOK1-hu MSLN cells and endogenously on COV644 cells) (human, UniProt Q13421 296-598); test: cell-based or functional assay
[2] = molecular target: T1, membrane-bound human MSLN (on CHOK1-hu …); test: flow cytometry on COV644 cells
Method: (§1) Binding of recombinant anti-MSLN antibodies to COV644 cell line (ECACC, catalog: 07071908) was tested by flow cytometry. In brief, anti-MSLN antibodies were serially diluted in staining buffer (PBS containing 2% FBS). 50 μL of diluted antibody solution was added to 50 μL of cell suspension containing 1-2×10⁵ cells and incubated at 4° C. for 1 hour. The cells were washed twice with staining buffer (PBS containing 2% FBS), and 100 μL of 1:1000 diluted florescent labeled anti-human IgG antibody (Alexa Fluor® 488 AffiniPure Goat Anti-Human IgG(H+L), Jackson ImmunoResearch, Catalog 109-545-088) was added into each well. After 1-hour incubation at 4° C., cells were washed twice with staining buffer and subjected to flow cytometry.

[3] = molecular target: T2, recombinant human MSLN ECD His-tag protein (Acro Biosystems, Catalog #MSN-H5223) (human, UniProt Q13421 296-580, limits assumed); test: BLI (Octet Red384), antibody on AHC sensor, human MSLN-His in solution
T2 construct: extracellular domain; Bought protein; also called human MSLN protein; recombinant human MSLN-His tag; not shown: His-tag
T2 sequence (Q13421 other isoform, or with tags, fused parts or gaps limits assumed): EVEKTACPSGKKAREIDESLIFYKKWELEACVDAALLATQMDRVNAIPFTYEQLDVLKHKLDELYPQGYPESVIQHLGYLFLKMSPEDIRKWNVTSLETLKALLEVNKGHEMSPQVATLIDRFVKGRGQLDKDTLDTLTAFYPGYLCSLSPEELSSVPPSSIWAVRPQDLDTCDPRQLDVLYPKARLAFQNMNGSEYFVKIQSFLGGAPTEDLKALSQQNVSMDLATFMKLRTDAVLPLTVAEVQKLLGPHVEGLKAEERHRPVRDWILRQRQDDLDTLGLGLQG
Method: In the example, binding kinetics of anti-MSLN antibodies to soluble MSLN were analyzed by Octet Red384 (Fortebio). In Bio-Layer Interferometry (BLI) analysis, recombinant human MSLN-His tag (Acro Biosystems, Catalog #MSN-H5223) was serially diluted with 1× kinetic buffer (Fortebio). Anti-MSLN antibodies were diluted to 5 μg/mL. Then the diluted antibodies, antigen and regeneration buffer (10 mM glycine pH 1.75) were added to 96-well plates (Greiner). Rate constants for association and dissociation were measured using AHC sensor (Fortebio). The sensor surface was regenerated after each binding experiment with regeneration buffer. The traces were processed using Octet Data Analysis Software (version 11.0, Pall ForteBio, CA, USA).

[4] = molecular target: T1, membrane-bound human MSLN (on CHOK1-hu …); test: flow cytometry on CHOK1-human MSLN cells, Alexa Fluor 488 anti-human IgG detection [panel A]
Method: (§2) Binding of recombinant anti-MSLN antibodies to human or cynomolgus MSLN-expressing cells was tested by flow cytometry.
as §1, with “In” for “Binding of recombinant anti-MSLN antibodies to COV644 cell line (ECACC, catalog: 07071908) was tested by flow cytometry. In”

[5] = molecular target: T1, membrane-bound human MSLN (on CHOK1-hu …); test: flow cytometry on COV644 cells (endogenous human MSLN), Alexa Fluor 488 anti-human IgG detection [panel A]
Method: as §2
as §1, with “In” for “Binding of recombinant anti-MSLN antibodies to COV644 cell line (ECACC, catalog: 07071908) was tested by flow cytometry. In”

[6] = molecular target: T1, membrane-bound human MSLN (on CHOK1-hu …); test: flow cytometry on CHOK1-human MSLN cells, Alexa Fluor 488 anti-human IgG detection [panel B]
Method: as §2
as §1, with “In” for “Binding of recombinant anti-MSLN antibodies to COV644 cell line (ECACC, catalog: 07071908) was tested by flow cytometry. In”

T1 sequence (Q13421 other isoform, or with tags, fused parts or gaps limits assumed): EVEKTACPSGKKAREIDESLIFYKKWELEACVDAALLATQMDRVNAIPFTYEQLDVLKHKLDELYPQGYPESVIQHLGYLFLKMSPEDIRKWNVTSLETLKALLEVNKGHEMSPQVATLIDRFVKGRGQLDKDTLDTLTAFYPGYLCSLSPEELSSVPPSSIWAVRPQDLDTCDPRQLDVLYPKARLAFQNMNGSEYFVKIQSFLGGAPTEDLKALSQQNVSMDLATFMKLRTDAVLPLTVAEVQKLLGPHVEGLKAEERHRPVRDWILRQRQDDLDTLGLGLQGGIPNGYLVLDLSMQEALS

Binder	Internalization FLU [1] [FLU]	EC50 [2] [nM]	TOP (MFI) [2] [MFI]	Kd [3] [nM]	kon [3] [M⁻¹ s⁻¹]	EC50 (read off the curve) [4] [nM]	EC50 (read off the curve) [5] [nM]	EC50 (read off the curve) [6] [nM]
PR300159 (antibody, V domains shown, Parental antibody from Harbour H2L2 mice) VH: QVQLVESGGGVVQPGRSLRLSCAASGFTFSSDGMNWVRQAPGKGLEWVAVIWNDGSNKYYADSVKGRFTISRDNSKNTLYLQMNSLRAEDTAVYYCARDRGPLWPLDYWGQGTLVTVSS VL: DIQMTQSPSTLSASVGDRVTITCRASQSISRWLAWYQQKPGKAPKLLIYKASSLESGVPSRFSGSGSGTEFTLTISNLQPDDFATFYCQQYNSYSRTFGQGTKVEIKR	22200	1.99	2.07e+06	0.00965	1.28e+06	~1	~0.4	–
PR300159-1 (antibody, V domains shown, PTM removal variant of PR300159: heavy chain G33A and D54E, light chain N92S) VH: QVQLVESGGGVVQPGRSLRLSCAASGFTFSSDAMNWVRQAPGKGLEWVAVIWNEGSNKYYADSVKGRFTISRDNSKNTLYLQMNSLRAEDTAVYYCARDRGPLWPLDYWGQGTLVTVSS VL: DIQMTQSPSTLSASVGDRVTITCRASQSISRWLAWYQQKPGKAPKLLIYKASSLESGVPSRFSGSGSGTEFTLTISNLQPDDFATFYCQQYSSYSRTFGQGTKVEIKR	13700	1.64	2.34e+06	< 0.001	947000	–	–	–
PR300159-3 (antibody, V domains shown, PTM removal variant of PR300159: heavy chain G33A and G55A) VH: QVQLVESGGGVVQPGRSLRLSCAASGFTFSSDAMNWVRQAPGKGLEWVAVIWNDASNKYYADSVKGRFTISRDNSKNTLYLQMNSLRAEDTAVYYCARDRGPLWPLDYWGQGTLVTVSS VL: DIQMTQSPSTLSASVGDRVTITCRASQSISRWLAWYQQKPGKAPKLLIYKASSLESGVPSRFSGSGSGTEFTLTISNLQPDDFATFYCQQYNSYSRTFGQGTKVEIKR	9180	2.14	2.06e+06	< 0.001	828000	–	–	–
PR300159-4 (antibody, V domains shown, PTM removal variant of PR300159: light chain S93A) VH: QVQLVESGGGVVQPGRSLRLSCAASGFTFSSDGMNWVRQAPGKGLEWVAVIWNDGSNKYYADSVKGRFTISRDNSKNTLYLQMNSLRAEDTAVYYCARDRGPLWPLDYWGQGTLVTVSS VL: DIQMTQSPSTLSASVGDRVTITCRASQSISRWLAWYQQKPGKAPKLLIYKASSLESGVPSRFSGSGSGTEFTLTISNLQPDDFATFYCQQYNAYSRTFGQGTKVEIKR	20900	–	–	< 0.001	978000	–	–	–
PR300159-5 (antibody, V domains shown, PTM removal variant of PR300159: light chain N92Q) VH: QVQLVESGGGVVQPGRSLRLSCAASGFTFSSDGMNWVRQAPGKGLEWVAVIWNDGSNKYYADSVKGRFTISRDNSKNTLYLQMNSLRAEDTAVYYCARDRGPLWPLDYWGQGTLVTVSS VL: DIQMTQSPSTLSASVGDRVTITCRASQSISRWLAWYQQKPGKAPKLLIYKASSLESGVPSRFSGSGSGTEFTLTISNLQPDDFATFYCQQYQSYSRTFGQGTKVEIKR	20900	2.75	2.13e+06	< 0.001	1.05e+06	–	–	–
PR300159-6 (antibody, V domains shown, PTM removal variant of PR300159: light chain S93T) VH: QVQLVESGGGVVQPGRSLRLSCAASGFTFSSDGMNWVRQAPGKGLEWVAVIWNDGSNKYYADSVKGRFTISRDNSKNTLYLQMNSLRAEDTAVYYCARDRGPLWPLDYWGQGTLVTVSS VL: DIQMTQSPSTLSASVGDRVTITCRASQSISRWLAWYQQKPGKAPKLLIYKASSLESGVPSRFSGSGSGTEFTLTISNLQPDDFATFYCQQYNTYSRTFGQGTKVEIKR	17800	4.07	2.19e+06	< 0.001	819000	–	–	–
PR300159-7 (antibody, V domains shown, PTM removal variant of PR300159: light chain N92T) VH: QVQLVESGGGVVQPGRSLRLSCAASGFTFSSDGMNWVRQAPGKGLEWVAVIWNDGSNKYYADSVKGRFTISRDNSKNTLYLQMNSLRAEDTAVYYCARDRGPLWPLDYWGQGTLVTVSS VL: DIQMTQSPSTLSASVGDRVTITCRASQSISRWLAWYQQKPGKAPKLLIYKASSLESGVPSRFSGSGSGTEFTLTISNLQPDDFATFYCQQYTSYSRTFGQGTKVEIKR	22400	–	–	< 0.001	1.06e+06	–	–	–
PR300159-8 (antibody, V domains shown, PTM removal variant of PR300159: light chain N92A) VH: QVQLVESGGGVVQPGRSLRLSCAASGFTFSSDGMNWVRQAPGKGLEWVAVIWNDGSNKYYADSVKGRFTISRDNSKNTLYLQMNSLRAEDTAVYYCARDRGPLWPLDYWGQGTLVTVSS VL: DIQMTQSPSTLSASVGDRVTITCRASQSISRWLAWYQQKPGKAPKLLIYKASSLESGVPSRFSGSGSGTEFTLTISNLQPDDFATFYCQQYASYSRTFGQGTKVEIKR	21200	2.33	2.15e+06	< 0.001	956000	–	–	–
PR300159-9 (antibody, V domains shown, PTM removal variant of PR300159: heavy chain G33A and D54E, light chain S93A) VH: QVQLVESGGGVVQPGRSLRLSCAASGFTFSSDAMNWVRQAPGKGLEWVAVIWNEGSNKYYADSVKGRFTISRDNSKNTLYLQMNSLRAEDTAVYYCARDRGPLWPLDYWGQGTLVTVSS VL: DIQMTQSPSTLSASVGDRVTITCRASQSISRWLAWYQQKPGKAPKLLIYKASSLESGVPSRFSGSGSGTEFTLTISNLQPDDFATFYCQQYNAYSRTFGQGTKVEIKR	8300	8.25	1.56e+06	< 0.001	566000	–	–	–
PR300186 (antibody, human IgG1, kappa, V domains shown, Parental antibody from Harbour H2L2 mice) VH: QVQLQESGPGLVKPSETLSLTCTVSGGSINNYYWSWVRQPPGKGLEWIGYIFYSGSTNSNPSLKSRVIISVDTSKNQFSLKLSSVTAADTAVYYCAREVGRIAVAGWFFDLWGRGTLVTVSS VL: not shown	6050	–	–	18.6	705000	–	–	~0.4
PR300186-3 (antibody, human IgG1, kappa, V domains shown) VH: QVQLQESGPGLVKPSETLSLTCTVSGGSIQNYYWSWVRQPPGKGLEWIGYIFYSGSTQSNPSLKSRVIISVDTSKNQFSLKLSSVTAADTAVYYCAREVGRIAVAGWFFDLWGRGTLVTVSS VL: not shown	7040	–	–	–	–	–	–	–
PR300186-9 (antibody, human IgG1, kappa, V domains shown) VH: QVQLQESGPGLVKPSETLSLTCTVSGGSINNYYWSWVRQPPGKGLEWIGYIFYSGSTNSNPSLKSRVIISVDTSKNQFSLKLSSVTAADTAVYYCAREVGRIAVAGWFFDLWGRGTLVTVSS VL: not shown	8070	–	–	–	–	–	–	–
PR300186-10 (antibody, human IgG1, kappa, V domains shown, PTM removal variant of PR300186: heavy chain N30Q and N58Q, light chain S31A) VH: QVQLQESGPGLVKPSETLSLTCTVSGGSIQNYYWSWVRQPPGKGLEWIGYIFYSGSTQSNPSLKSRVIISVDTSKNQFSLKLSSVTAADTAVYYCAREVGRIAVAGWFFDLWGRGTLVTVSS VL: not shown	8220	–	–	128	431000	–	–	–
